Data reported in EP4799649A1 (RemeGen Co., Ltd., dated 2026).

How the values were obtained:
[1] = target: T1, Blys homotrimer (UniProt Q9Y275 134-285); assay: ELISA on Blys homotrimer
T1 construct: also called BAFF; B lymphocyte stimulator

[2] = target: T2, APRIL homotrimer (UniProt O75888 105-250, limits assumed); assay: ELISA on APRIL homotrimer
T2 construct: also called a proliferation-inducing ligand
T2 sequence (looked up): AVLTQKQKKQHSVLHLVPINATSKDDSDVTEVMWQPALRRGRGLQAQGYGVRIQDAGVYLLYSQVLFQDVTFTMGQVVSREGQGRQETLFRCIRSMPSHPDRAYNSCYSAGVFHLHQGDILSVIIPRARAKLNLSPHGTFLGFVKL

T1 sequence (Q9Y275 134-285 limits assumed): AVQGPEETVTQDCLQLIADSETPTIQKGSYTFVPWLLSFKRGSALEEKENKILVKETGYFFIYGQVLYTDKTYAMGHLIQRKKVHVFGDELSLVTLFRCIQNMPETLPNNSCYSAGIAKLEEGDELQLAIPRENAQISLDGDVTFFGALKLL

B1: povetacicept (Fc fusion)
chain: SLSCRKEQGEYYDHLLRDCISCASICGQHPKQCADFCENKLRSGSGGGGSEPKSSDKTHTCPPCPAPEAEGAPSVFLFPPKPKDTLMISRTPEVTCVVVDVSHEDPEVKFNWYVDGVEVHNAKTKPREEQYNSTYRVVSVLTVLHQDWLNGKEYKCKVSNKALPAPIEKTISKAKGQPREPQVYTLPPSRDELTKNQVSLTCLVKGFYPSDIAVEWESNGQPENNYKTTPPVLDSDGSFFLYSKLTVDKSRWQQGNVFSCSVMHEALHNHYTQKSLSLSPG
notes: Fc fusion protein of an engineered TACI domain
In the case of B1, the EC50 [1] is reported as 0.057 nM and the EC50 [2] is reported as 0.128 nM.

B2: telitacicept (Fc fusion)
chain: SRVDQEERFPQGLWTGVAMRSCPEEQYWDPLLGTCMSCKTICNHQSQRTCAAFCRSLSCRKEQGKFYDHLLRDCISCASICGQHPKQCAYFCENKLRSPVNLPPELDKTHTCPPCPAPEAEGAPSVFLFPPKPKDTLMISRTPEVTCVVVDVSHEDPEVKFNWYVDGVEVHNAKTKPREEQYNSTYRVVSVLTVLHQDWLNGKEYKCKVSNKALPSSIEKTISKAKGQPREPQVYTLPPSRDELTKNQVSLTCLVKGFYPSDIAVEWESNGQPENNYKTTPPVLDSDGSFFLYSKLTVDKSRWQQGNVFSCSVMHEALHNHYTQKSLSLSPGK
notes: TACI-Fc fusion protein (truncated TACI plus optimized human IgG1 Fc); also called RC18; Tai'ai
B2 gave an EC50 [1] of 0.219 nM and an EC50 [2] of 1.1 nM.
